Literature values as cited in publication PMC10524267.
pKd: −log10 of the molar value.

Biological target: CX3CR1 (Homo sapiens) (UniProt P49238)
Sequence of UniProt P49238 (P49238 whole entry): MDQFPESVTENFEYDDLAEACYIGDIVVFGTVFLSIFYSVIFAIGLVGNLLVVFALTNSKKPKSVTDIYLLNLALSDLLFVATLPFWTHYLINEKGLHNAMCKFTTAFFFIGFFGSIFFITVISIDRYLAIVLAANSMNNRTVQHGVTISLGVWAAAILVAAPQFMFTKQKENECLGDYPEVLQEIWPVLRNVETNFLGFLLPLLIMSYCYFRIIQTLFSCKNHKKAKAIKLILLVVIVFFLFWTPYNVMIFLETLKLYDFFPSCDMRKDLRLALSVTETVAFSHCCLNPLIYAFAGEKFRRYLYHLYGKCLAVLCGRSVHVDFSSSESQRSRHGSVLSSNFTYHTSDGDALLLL

pKd: 9.04
Substance: CX3CL1 (from UniProt P78423)
